B1: r-B10 (designed binder)
chain: ETITVSTPIKQIFPDDAFAETIKANLKKKSVTDAVTQNELNSIDQIIANNSDIKSVQGIQYLPNVRYLALGGNKLHDISALKELTNLTYLVLDPNQLQSLPNGVFDKLTNLKELSLWTNQLQSLPDGVFDKLTNLTYLNLAHNQLQSLPKGVFDKLTNLTELDLSYNQLQSLPEGVFDKLTQLKDLRLYQNQLKSVPDGVFDRLTSLQYIWLHDNPWDCTCPGIRYLSEWINKHSGVVRNSAGSVAPDSAKCSGSGKPVRSIICPT
notes: on phage in the ELISA
B2: r-F7 (designed binder)
chain: B1 chain
notes: on phage in the ELISA

Biological target: T1, human interleukin-6 (human, UniProt P05231 30-212)
T1 construct: also called hIL-6; IL-6
Experiment: phage ELISA, 96-well plate coated with IL-6 and BSA

Binder | OD450 on IL-6 relative to BSA [fold]
B1 | ≥ 10
B2 | ≥ 10

Reference: US20150133308A1 (KOREA ADVANCED INSTITUTE OF SCIENCE AND TECHNOLOGY, published 2015)
